From PMC10303687 (2023) come the findings set out here.

Assay in all cases: stopped flow koff/kon 10 C
One experiment concerns the target T1, p63_Dr (zebrafish, UniProt E9QG65).
T1 chain: GQDVLNQLLEML

The next experiment has as its target T2, p73_Dr (zebrafish, UniProt A0A8M2BER5).
T2 chain: EGPTFEHLWSTL

The target of the next experiment is T3, p53_Dr (Danio rerio (Zebrafish) (Brachydanio …, UniProt P79734)).
T3 chain: DSQEFAELWEKNL

The next experiment addresses T4, p53_Gg (Gallus gallus (Chicken), UniProt P10360).
T4 chain: EPTEVFMDLWSML

B1: MDM2_Dr (protein)
chain: SQISKVDNEKLVRPKVQLKSLLEDAGADKDVFTMKEVMFYLGKYIMSKELYDKQQQHIVHCGEDPLGAVLGVKSFSVKEPRALFALINRNLVTVK
B1: the figures for the Kd in the experiment with p63_Dr, with p73_Dr and with p53_Dr were 130000 nM, 120 nM and 1900 nM, respectively.

B2: MDM2_Gg (protein)
chain: SPVSASEQEALVKPKPLLLKLLKLAGAEKDTFTMKEVIFYLGQYIMSKQLYDEKEQHIVHCANDLLGDLFGVTSFSVKEHRRIYSMISRNLIAIN
In the experiment with p53_Gg, B2 displayed a Kd of 90 nM.
